From patent US20090263395

B1: A2282 protein, wild type (A2282V1, MELK), HA-tagged, immunoprecipitated from HEK 293 cells (protein)
chain: MKDYDELLKYYELHETIGTGGFAKVKLACHILTGEMVAIKIMDKNTLGSDLPRIKTEIEALKNLRHQHICQLYHVLETANKIFMVLEYCPGGELFDYIISQDRLSEEETRVVFRQIVSAVAYVHSQGYAHRDLKPENLLFDEYHKLKLIDFGLCAKPKGNKDYHLQTCCGSLAYAAPELIQGKSYLGSEADVWSMGILLYVLMCGFLPFDDDNVMALYKKIMRGKYDVPKWLSPSSILLLQQMLQVDPKKRISMKNLLNHPWIMQDYNYPVEWQSKNPFIHLDDDCVTELSVHHRNNRQTMEDLISLWQYDHLTATYLLLLAKKARGKPVRLRLSSFSCGQASATPFTDIKSNNWSLEDVTASDKNYVAGLIDYDWCEDDLSTGAATPRTSQFTKYWTESNGVESKSLTPALCRTPANKLKNKENVYTPKSAVKNEEYFMFPEPKTPVNKNQHKREILTTPNRYTTPSKARNQCLKETPIKIPVNSTGTDKLMTGVISPERRCRSVELDLNQAHMEETPKRKGAKVFGSLERGLDKVITVLTRSKRKGSARDGPRRLKLHYNVTTTRLVNPDQLLNEIMSILPKKHVDFVQKGYTLKCQTQSDFGKVTMQFELEVCQLQKPDVVGIRRQRLKGDAWVYKRLVEDILSSCKV
B2: A2282 protein T167A mutant, HA-tagged (protein)
chain: MKDYDELLKYYELHETIGTGGFAKVKLACHILTGEMVAIKIMDKNTLGSDLPRIKTEIEALKNLRHQHICQLYHVLETANKIFMVLEYCPGGELFDYIISQDRLSEEETRVVFRQIVSAVAYVHSQGYAHRDLKPENLLFDEYHKLKLIDFGLCAKPKGNKDYHLQACCGSLAYAAPELIQGKSYLGSEADVWSMGILLYVLMCGFLPFDDDNVMALYKKIMRGKYDVPKWLSPSSILLLQQMLQVDPKKRISMKNLLNHPWIMQDYNYPVEWQSKNPFIHLDDDCVTELSVHHRNNRQTMEDLISLWQYDHLTATYLLLLAKKARGKPVRLRLSSFSCGQASATPFTDIKSNNWSLEDVTASDKNYVAGLIDYDWCEDDLSTGAATPRTSQFTKYWTESNGVESKSLTPALCRTPANKLKNKENVYTPKSAVKNEEYFMFPEPKTPVNKNQHKREILTTPNRYTTPSKARNQCLKETPIKIPVNSTGTDKLMTGVISPERRCRSVELDLNQAHMEETPKRKGAKVFGSLERGLDKVITVLTRSKRKGSARDGPRRLKLHYNVTTTRLVNPDQLLNEIMSILPKKHVDFVQKGYTLKCQTQSDFGKVTMQFELEVCQLQKPDVVGIRRQRLKGDAWVYKRLVEDILSSCKV
B3: A2282 protein D150A mutant, HA-tagged (protein)
chain: MKDYDELLKYYELHETIGTGGFAKVKLACHILTGEMVAIKIMDKNTLGSDLPRIKTEIEALKNLRHQHICQLYHVLETANKIFMVLEYCPGGELFDYIISQDRLSEEETRVVFRQIVSAVAYVHSQGYAHRDLKPENLLFDEYHKLKLIAFGLCAKPKGNKDYHLQTCCGSLAYAAPELIQGKSYLGSEADVWSMGILLYVLMCGFLPFDDDNVMALYKKIMRGKYDVPKWLSPSSILLLQQMLQVDPKKRISMKNLLNHPWIMQDYNYPVEWQSKNPFIHLDDDCVTELSVHHRNNRQTMEDLISLWQYDHLTATYLLLLAKKARGKPVRLRLSSFSCGQASATPFTDIKSNNWSLEDVTASDKNYVAGLIDYDWCEDDLSTGAATPRTSQFTKYWTESNGVESKSLTPALCRTPANKLKNKENVYTPKSAVKNEEYFMFPEPKTPVNKNQHKREILTTPNRYTTPSKARNQCLKETPIKIPVNSTGTDKLMTGVISPERRCRSVELDLNQAHMEETPKRKGAKVFGSLERGLDKVITVLTRSKRKGSARDGPRRLKLHYNVTTTRLVNPDQLLNEIMSILPKKHVDFVQKGYTLKCQTQSDFGKVTMQFELEVCQLQKPDVVGIRRQRLKGDAWVYKRLVEDILSSCKV
B4: A2282 protein T478A mutant, HA-tagged (protein)
chain: MKDYDELLKYYELHETIGTGGFAKVKLACHILTGEMVAIKIMDKNTLGSDLPRIKTEIEALKNLRHQHICQLYHVLETANKIFMVLEYCPGGELFDYIISQDRLSEEETRVVFRQIVSAVAYVHSQGYAHRDLKPENLLFDEYHKLKLIDFGLCAKPKGNKDYHLQTCCGSLAYAAPELIQGKSYLGSEADVWSMGILLYVLMCGFLPFDDDNVMALYKKIMRGKYDVPKWLSPSSILLLQQMLQVDPKKRISMKNLLNHPWIMQDYNYPVEWQSKNPFIHLDDDCVTELSVHHRNNRQTMEDLISLWQYDHLTATYLLLLAKKARGKPVRLRLSSFSCGQASATPFTDIKSNNWSLEDVTASDKNYVAGLIDYDWCEDDLSTGAATPRTSQFTKYWTESNGVESKSLTPALCRTPANKLKNKENVYTPKSAVKNEEYFMFPEPKTPVNKNQHKREILTTPNRYTTPSKARNQCLKEAPIKIPVNSTGTDKLMTGVISPERRCRSVELDLNQAHMEETPKRKGAKVFGSLERGLDKVITVLTRSKRKGSARDGPRRLKLHYNVTTTRLVNPDQLLNEIMSILPKKHVDFVQKGYTLKCQTQSDFGKVTMQFELEVCQLQKPDVVGIRRQRLKGDAWVYKRLVEDILSSCKV

The proteins below were run against Histone H1 (UPSTATE, Lake Placid, N.Y.).
In the case of B1, the “kinase activity (immune complex kinase assay, [gamma-32P]-ATP)” value (“kinase activity” below) is reported as “wild type and T478A proteins possessing intact kinase domain was observed phosphorylated Histone H1 in vitro”. For B2, the “kinase activity” value was “This activity was severely compromised in T167A mutant”. B3 was tested, and the “kinase activity” value was “completely abolished in D150A protein”. In the case of B4, the “kinase activity” value is reported as “wild type and T478A proteins possessing intact kinase domain was observed phosphorylated Histone H1 in vitro”.
